Series [1] has as its system CCCCC/C=C\C\C=C/C=C/C=C/[C@@H](SC[C@H](NC(=O)CC[C@H](N)C(=O)O)C(=O)NCC(=O)O)[C@@H](O)CCCC(=O)O. Put plainly: purified protein. The settings on record: substrate binding site.
Series [2] concerns N[C@@H](CCC(=O)N[C@@H](CSCc1ccc([N+](=O)[O-])cc1)C(=O)NCC(=O)O)C(=O)O. Put plainly: glutamate release assay, Km of hydrolysis. The series is classed as biochemical, Homo sapiens.
In series [3] the test system is CSC[C@H](NC(=O)CC[C@H](N)C(=O)O)C(=O)NCC(=O)O. In words: glutamate release assay, Km of hydrolysis. It counts as biochemical, Homo sapiens.

One may read the Km as the substrate concentration at which the rate is half of its maximum. As usually defined, the kcat is the number of substrate molecules converted per active site and unit of time at saturation. Usually kcat/Km stands for the second-order rate constant that governs catalysis at low substrate concentration. Turning to “gamma-glutamyl transpeptidase (GGT1) (Homo sapiens)”, in series [1], the Michaelis-Menten constant (Km) was found to be 10.8 ± 0.1 µM, the kcat was determined as 88.3 s⁻¹ and the kcat/Km amounted to 8.17e+06 M⁻¹ s⁻¹. In addition, in series [2], the Km was determined as 13.10 ± 0.05 µM, the turnover number (kcat) is 103 ± 6.67 s⁻¹ and the kcat/Km is 7.83e+06 ± 500000 M⁻¹ s⁻¹. Moreover, in series [3], the Km was determined as 9.90 ± 0.07 µM, the kcat stood at 95 ± 3.33 s⁻¹ and the kcat/Km amounted to 9.5e+06 ± 333000 M⁻¹ s⁻¹.

(Values after publication PMC3099546.)
